Test results published in patent publication US20090311283A1.
Read-outs that look alike come from different tables or passages of the source.

What was measured:
HLA-A*0301 (human) [1] = experiment: competition with 125I-labelled probe peptide for purified HLA, gel filtration
HLA-A*0301 (human) [2] = experiment: competitive inhibition of 125I-labelled probe peptide binding to purified HLA, gel filtration; settings: scale: ratio
HLA-A*0201 (Human) [3] = molecular target: HLA-A*0201 (Human)
HLA-A*0201 (human) [4] = molecular target: HLA-A*0201 (human)
HLA-A*0201 (human) [5] = experiment: competition with 125I-labelled probe peptide for purified HLA, gel filtration
[6] = remark: other sources report otherwise

VVRRRGRSPR (modifications not checked) [HBV NUC 177 peptide …]
binding affinity ratio (IC50 of standard peptide / IC50 of test peptide) (ratio to standard peptide) (HLA-A*0301 (human) [1]): 0.0027

WGMDIDPYK (modifications not checked) [HBV NUC 28 peptide …]
binding affinity ratio (IC50 of standard peptide / IC50 of test peptide) (ratio to standard peptide) (HLA-A*0301 (human) [1]): -0.0003

WIRTPPAY (modifications not checked) [HBV NUC 125 peptide WIRTPPAY]
binding affinity ratio (relative binding to standard peptide) (HLA-A*0301 (human) [2]): -0.0002

WLQFRNSK (modifications not checked) [HBV POL 314 peptide WLQFRNSK]
binding affinity ratio (relative binding to standard peptide) (HLA-A*0301 (human) [2]): -0.0002

WLWGMDIDPYK (modifications not checked) [HBV NUC 26 peptide …]
binding affinity ratio (relative binding to standard peptide) (HLA-A*0301 (human) [2]; [6]): 0.003

YLPLDKGIK (modifications not checked)
binding affinity ratio (relative binding to standard peptide) (HLA-A*0301 (human) [2]): 0.0001

YLPLDKGIKPY (modifications not checked)
binding affinity ratio (relative binding to standard peptide) (HLA-A*0301 (human) [2]): -0.0004

FIIFLFIL (modifications not checked) [HBV ENV 243 FIIFLFIL]
binding affinity ratio (IC50 of standard peptide / IC50 of test peptide) (HLA-A*0201 (Human) [3]): 0.0006

FLFILLLCL (modifications not checked) [HBV ENV 246 …]
binding affinity ratio (IC50 of standard peptide / IC50 of test peptide) (HLA-A*0201 (Human) [3]): 0.0002

FLVDKNPHNT (modifications not checked) [HBV POL 363 …]
binding affinity ratio (IC50 of standard peptide / IC50 of test peptide) (HLA-A*0201 (Human) [3]): 0.0012

FTGLYSSTV (modifications not checked) [HBV POL 59 …]
binding affinity ratio (IC50 of standard peptide / IC50 of test peptide) (HLA-A*0201 (Human) [3]): 0.0005

FTSAICSVV (modifications not checked) [HBV POL 518 …]
binding affinity ratio (IC50 of standard peptide / IC50 of test peptide) (HLA-A*0201 (Human) [3]): 0.009

FVLGGCRHKL (modifications not checked) [HBV X 132 …]
binding affinity ratio (IC50 of standard peptide / IC50 of test peptide) (HLA-A*0201 (Human) [3]): 0.003

GLLGFAAPFT (modifications not checked) [HBV POL 627 peptide …]
binding affinity ratio (IC50 of standard peptide / IC50 of test peptide) (HLA-A*0201 (Human) [3]): 0.0049

GLSPTVWL (modifications not checked) [HBV ENV 348 peptide GLSPTVWL]
binding affinity ratio (IC50 of standard peptide / IC50 of test peptide) (HLA-A*0201 (Human) [3]): 0.0036

GLSPTVWLSVI (modifications not checked) [HBV ENV 348 peptide …]
binding affinity ratio (IC50 of standard peptide / IC50 of test peptide) (HLA-A*0201 (Human) [3]): 0.0036

GVWIRTPPA (modifications not checked) [HBV NUC 123 peptide …]
binding affinity ratio (IC50 of standard peptide / IC50 of test peptide) (HLA-A*0201 (Human) [3]): 0.003

ILLLCLIFL (modifications not checked) [HBV ENV 249 peptide …]
binding affinity ratio (IC50 of standard peptide / IC50 of test peptide) (HLA-A*0201 (Human) [3]): 0.0015

IVGLLGFAA (modifications not checked) [HBV POL 625 peptide …]
binding affinity ratio (IC50 of standard peptide / IC50 of test peptide) (HLA-A*0201 (Human) [3]): 0.0009

LIFLLVLL (modifications not checked) [HBV ENV 254 peptide LIFLLVLL]
binding affinity ratio (IC50 of standard peptide / IC50 of test peptide) (HLA-A*0201 (human) [4]): 0.0025

LLDYQGML (modifications not checked) [HBV ENV 260 peptide LLDYQGML]
binding affinity ratio (IC50 of standard peptide / IC50 of test peptide) (HLA-A*0201 (human) [4]): 0.0004

LLGCAANWI (modifications not checked) [HBV POL 752 peptide …]
binding affinity ratio (IC50 of standard peptide / IC50 of test peptide) (HLA-A*0201 (human) [4]): 0.0011

LLTRILTI (modifications not checked) [HBV ENV 184 peptide LLTRILTI]
binding affinity ratio (IC50 of standard peptide / IC50 of test peptide) (HLA-A*0201 (human) [4]): 0.0026

LVSFGVWI (modifications not checked) [HBV NUC 119 peptide LVSFGVWI]
binding affinity ratio (IC50 of standard peptide / IC50 of test peptide) (ratio to standard peptide) (HLA-A*0201 (Human) [3]): 0.0004

NLGNLNVSI (modifications not checked) [HBV POL 42 peptide …]
binding affinity ratio (IC50 of standard peptide / IC50 of test peptide) (ratio to standard peptide) (HLA-A*0201 (Human) [3]): 0.0047

NLLSSNLSWL (modifications not checked) [HBV POL 406 peptide …]
binding affinity ratio (IC50 of standard peptide / IC50 of test peptide) (ratio to standard peptide) (HLA-A*0201 (Human) [3]): 0.0016

NLNVSIPWT (modifications not checked) [HBV POL 45 peptide …]
binding affinity ratio (IC50 of standard peptide / IC50 of test peptide) (ratio to standard peptide) (HLA-A*0201 (Human) [3]): 0.0005

PALMPLYACI (modifications not checked) [HBV POL 641 peptide …]
binding affinity ratio (IC50 of standard peptide / IC50 of test peptide) (HLA-A*0201 (human) [5]): 0.0001

PIILGFRKI (modifications not checked) [HBV POL 496 peptide …]
binding affinity ratio (IC50 of standard peptide / IC50 of test peptide) (HLA-A*0201 (human) [5]): 0.0001

PILSTLPET (modifications not checked)
binding affinity ratio (IC50 of standard peptide / IC50 of test peptide) (HLA-A*0201 (human) [5]): 0.0001

PILSTLPETT (modifications not checked)
binding affinity ratio (IC50 of standard peptide / IC50 of test peptide) (HLA-A*0201 (human) [5]): 0.0001

PILSTLPETTV (modifications not checked)
binding affinity ratio (IC50 of standard peptide / IC50 of test peptide) (HLA-A*0201 (human) [5]): 0.0001

PLEEELPRL (modifications not checked)
binding affinity ratio (IC50 of standard peptide / IC50 of test peptide) (HLA-A*0201 (human) [5]): 0.0003

PLEEELPRLA (modifications not checked)
binding affinity ratio (IC50 of standard peptide / IC50 of test peptide) (HLA-A*0201 (human) [5]): 0.0001

PLGFFPDHQL (modifications not checked) [HBV ENV 10 peptide …]
binding affinity ratio (IC50 of standard peptide / IC50 of test peptide) (HLA-A*0201 (human) [5]): 0.0002

RVTGGVFLV (modifications not checked) [HBV POL 357 9-mer …]
binding affinity ratio (IC50 of standard peptide / IC50 of test peptide) (HLA-A*0201 (Human) [3]; [6]): 0.0041

SLNFMGYVI (modifications not checked) [HBV POL 581 9-mer …]
binding affinity ratio (IC50 of standard peptide / IC50 of test peptide) (HLA-A*0201 (Human) [3]): 0.0038

STLPETTVV (modifications not checked) [HBV NUC 141 peptide …]
binding affinity ratio (IC50 of standard peptide / IC50 of test peptide) (HLA-A*0201 (Human) [3]): 0.0019

SVRFSWLSLL (modifications not checked) [HBV ENV 330 peptide …]
binding affinity ratio (IC50 of standard peptide / IC50 of test peptide) (HLA-A*0201 (Human) [3]): 0.0004

VLCLRPVGA (modifications not checked) [HBV X 15 peptide …]
binding affinity ratio (IC50 of standard peptide / IC50 of test peptide) (HLA-A*0201 (Human) [3]; [6]): 0.0014

VLGGCRHKL (modifications not checked) [HBV X 133 peptide …]
binding affinity ratio (IC50 of standard peptide / IC50 of test peptide) (HLA-A*0201 (Human) [3]): 0.0009

VLHKRTLGL (modifications not checked) [HBV X 92 peptide …]
binding affinity ratio (IC50 of standard peptide / IC50 of test peptide) (HLA-A*0201 (Human) [3]; [6]): 0.0012

WLLGCAANWI (modifications not checked) [HBV POL 751 10-mer peptide …]
binding affinity ratio (IC50 of standard peptide / IC50 of test peptide) (HLA-A*0201 (human) [4]): 0.0053

WLSLDVSAA (modifications not checked) [HBV POL 414 9-mer peptide …]
binding affinity ratio (IC50 of standard peptide / IC50 of test peptide) (HLA-A*0201 (human) [4]): 0.0059

WMCLRRFIIFL (modifications not checked) [HBV ENV 237 11-mer peptide …]
binding affinity ratio (IC50 of standard peptide / IC50 of test peptide) (HLA-A*0201 (human) [4]): 0.0019

YVPSALNPA (modifications not checked) [HBV POL 768 peptide …]
binding affinity ratio (IC50 of standard peptide / IC50 of test peptide) (HLA-A*0201 (human) [4]): 0.0039

VVRRRGRSPR (modifications not checked) [… (HBV NUC 177)]
binding affinity ratio (IC50 of standard peptide / IC50 of test peptide) (HLA-A*0301 (human) [1]): 0.0027
